From US20240209076A1 (KODIAK SCIENCES, published 2024)
Residue numbers refer to the chain shown, from its start. Names may count otherwise.

B1: anti-IL-6 antibody, light chain M32L (heavy chain WT) (antibody, V domains shown)
VH: EVQLVESGGGLVQPGGSLRLSCAASGFTFSPFAMSWVRQAPGKGLEWVAKISPGGSWTYYSDTVTGRFTFSLDTSKSTAYLQMNSLRAEDTAVYYCARQLWGYYALDIWGQGTLVTVSS
VL: DIQLTQSPSSLSASVGDRVTITCSASISVSYLYWYQQKPGKAPKLLIYDMSNLASGVPSRFSGSGSGTDFTLTISSLQPEDFATYYCMQWSGYPYTFGQGTKVEIK
notes: See note of m2; also called WT / M32L
B2: anti-IL-6 antibody, heavy chain variant I (M34I, G66D, I108V) / light chain variant IV (M32L, M50A, N52S, M88Q) (antibody, V domains shown)
VH: B1 VH with M34I, G66D, I108V
VL: B1 VL with M50A, N52S, M88Q
notes: See note of m39; also called M34I, G66D, I108V/ M32L, M50A, N52S, M88Q; I/IV
B3: anti-IL-6 antibody, heavy chain variant I (M34I, G66D, I108V) / light chain variant III (M32L, M50D, N52S, M88Q) (antibody, human IgG1, V domains shown)
VH: B1 VH with M34I, G66D, I108V
VL: B1 VL with M50D, N52S, M88Q
notes: also called M34I, G66D, I108V/ M32L, M50D, N52S, M88Q; I/III
B4: anti-IL-6 antibody, light chain Y95G (heavy chain WT) (antibody, V domains shown)
VH: B1 VH
VL: B1 VL with L32M, Y95G
notes: See note of m2; also called WT / Y95G
B5: anti-IL-6 antibody, light chain Y95I (heavy chain WT) (antibody, V domains shown)
VH: B1 VH
VL: B1 VL with L32M, Y95I
notes: See note of m2; also called WT / Y95I
B6: anti-IL-6 antibody, light chain Y48W (heavy chain WT) (antibody, V domains shown)
VH: B1 VH
VL: B1 VL with L32M, Y48W
notes: See note of m2; also called WT / Y48W
B7: anti-IL-6 antibody, parent sequence (heavy chain WT, light chain WT) (antibody, V domains shown)
VH: B1 VH
VL: B1 VL with L32M
notes: Tested as full antibody from Expi293 cells in an engineered human IgG1 framework (L234A, L235A, G237A, L443C, EU); also called wild-type; parent molecule
B8: anti-IL-6 antibody, heavy chain D62Q, light chain WT (antibody, IgG1, V domains shown)
VH: B1 VH with D62Q
VL: B1 VL with L32M
notes: Full IgG1 tested; V domains derived as in m2
B9: anti-IL-6 antibody, heavy chain WT, light chain A25S (antibody, IgG1, V domains shown)
VH: B1 VH
VL: B1 VL with A25S, L32M
notes: as for B8
B10: anti-IL-6 antibody, heavy chain G26R, light chain WT (antibody, IgG1, V domains shown)
VH: B1 VH with G26R
VL: B1 VL with L32M
notes: as for B8
B11: anti-IL-6 antibody, heavy chain M34W, light chain WT (antibody, IgG1, V domains shown)
VH: B1 VH with M34W
VL: B1 VL with L32M
notes: Full IgG1 tested; VL as in m2
B12: anti-IL-6 antibody, heavy chain L106F, light chain WT (antibody, IgG1, V domains shown)
VH: B1 VH with L106F
VL: B1 VL with L32M
notes: as for B8
B13: anti-IL-6 antibody, heavy chain F29Y, light chain WT (antibody, IgG1, V domains shown)
VH: B1 VH with F29Y
VL: B1 VL with L32M
notes: as for B8
B14: anti-IL-6 antibody, heavy chain F32G, light chain WT (antibody, IgG1, V domains shown)
VH: B1 VH with F32G
VL: B1 VL with L32M
notes: as for B8
B15: anti-IL-6 antibody, heavy chain F29H, light chain WT (antibody, IgG1, V domains shown)
VH: B1 VH with F29H
VL: B1 VL with L32M
notes: as for B8
B16: anti-IL-6 antibody, heavy chain I108E, light chain WT (antibody, IgG1, V domains shown)
VH: B1 VH with I108E
VL: B1 VL with L32M
notes: as for B8
B17: anti-IL-6 antibody, heavy chain WT, light chain I27F (antibody, IgG1, V domains shown)
VH: B1 VH
VL: B1 VL with I27F, L32M
notes: as for B8
B18: anti-IL-6 antibody, heavy chain I108S, light chain WT (antibody, IgG1, V domains shown)
VH: B1 VH with I108S
VL: B1 VL with L32M
notes: as for B8
B19: anti-IL-6 antibody, heavy chain WT, light chain I27W (antibody, IgG1, V domains shown)
VH: B1 VH
VL: B1 VL with I27W, L32M
notes: as for B8
B20: anti-IL-6 antibody, heavy chain I51R, light chain WT (antibody, IgG1, V domains shown)
VH: B1 VH with I51R
VL: B1 VL with L32M
notes: as for B8
B21: anti-IL-6 antibody, heavy chain WT, light chain I27L (antibody, IgG1, V domains shown)
VH: B1 VH
VL: B1 VL with I27L, L32M
notes: as for B8
B22: anti-IL-6 antibody, heavy chain D107E, light chain WT (antibody, IgG1, V domains shown)
VH: B1 VH with D107E
VL: B1 VL with L32M
notes: as for B8
B23: anti-IL-6 antibody, heavy chain G66D, light chain WT (antibody, IgG1, V domains shown)
VH: B1 VH with G66D
VL: B1 VL with L32M
notes: Full IgG1 tested
B24: anti-IL-6 antibody, heavy chain L100Q, light chain WT (antibody, IgG1, V domains shown)
VH: B1 VH with L100Q
VL: B1 VL with L32M
notes: as for B8
B25: anti-IL-6 antibody, heavy chain G26S, light chain WT (antibody, IgG1, V domains shown)
VH: B1 VH with G26S
VL: B1 VL with L32M
notes: as for B8
B26: anti-IL-6 antibody, heavy chain I108F, light chain WT (antibody, IgG1, V domains shown)
VH: B1 VH with I108F
VL: B1 VL with L32M
notes: as for B8
B27: anti-IL-6 antibody, heavy chain WT, light chain A25T (antibody, IgG1, V domains shown)
VH: B1 VH
VL: B1 VL with A25T, L32M
notes: as for B8
B28: anti-IL-6 antibody, heavy chain G66E, light chain WT (antibody, IgG1, V domains shown)
VH: B1 VH with G66E
VL: B1 VL with L32M
notes: as for B8
B29: anti-IL-6 antibody, heavy chain W57F, light chain WT (antibody, IgG1, V domains shown)
VH: B1 VH with W57F
VL: B1 VL with L32M
notes: as for B8

Biological target: T1, recombinant human IL-6 (human, UniProt P05231 30-212)
T1 construct: Bought protein
Experiment: SPR Biacore, purified Ab on Protein A chip, IL-6 analyte, 37 C
Protocol: (§1) Antibodies were captured on a Protein A chip (GE) by injecting 1:20 dilution of cell supernatant at 10 μL/min for 60 seconds. […] The sensor chip was regenerated by a 60 seconds injection of 10 mM Glycine pH 1.7 at flow rate of 50 μL/min. […] For this setup, 1 μg/mL of purified antibody was injected over a Protein A chip at 10 μL/min for 25-28 seconds. Data analysis for supernatant and purified samples were performed using BIAevaluation software (GE). All sensorgrams were double reference subtracted and fit using a 1:1 Langmuir binding model.
T1 sequence (P05231 30-212 limits assumed): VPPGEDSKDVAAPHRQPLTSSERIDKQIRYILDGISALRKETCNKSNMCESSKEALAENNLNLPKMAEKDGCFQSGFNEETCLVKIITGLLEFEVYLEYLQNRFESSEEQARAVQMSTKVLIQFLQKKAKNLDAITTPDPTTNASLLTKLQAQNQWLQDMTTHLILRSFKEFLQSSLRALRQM

| Kd [nM] | koff [s⁻¹] | kon [M⁻¹ s⁻¹] | Binder |
| --- | --- | --- | --- |
| 0.395 | 0.00035 | 885000 | B1 |
| 0.556 | 0.000757 | 1.15e+06 | B2 |
| 0.625 | 0.000702 | 1.22e+06 | B3 |

Biological target: T1, recombinant human IL-6
Experiment: SPR Biacore, supernatant Ab on Protein A chip, IL-6 analyte, 25 C
Protocol: as §1

| Kd [nM] | koff [s⁻¹] | kon [M⁻¹ s⁻¹] | Binder |
| --- | --- | --- | --- |
| 0.199 | 0.000118 | 591000 | B1 |
| 0.383 | 0.000338 | 882000 | B4 |
| 0.323 | 0.000214 | 462000 | B2 |
| 7.48 | 0.00444 | 593000 | B5 |
| 0.552 | 0.0002 | – | B3 |
| 0.356 | 0.000123 | 345000 | B6 |

Biological target: T2, recombinant human IL-6 (human, UniProt P05231 30-212)
T2 construct: Flowed in solution over the captured antibodies
Experiment: SPR (Biacore), supernatant IgG on Protein A, 25 C
T2 sequence (P05231 30-212 limits assumed): as above

| Kd [nM] | koff [s⁻¹] | kon [M⁻¹ s⁻¹] | Binder |
| --- | --- | --- | --- |
| 0.399 | 0.000126 | 315000 | B7 |
| 0.366 | 0.000148 | 403000 | B8 |
| 0.197 | 0.000105 | 535000 | B9 |
| 0.302 | 0.000121 | 402000 | B10 |
| 0.39 | 0.000115 | 296000 | B11 |
| 0.314 | 0.000185 | 591000 | B12 |
| 0.266 | 0.000133 | 499000 | B13 |
| 0.318 | 0.000133 | 418000 | B14 |
| 0.273 | 0.000135 | 495000 | B15 |
| 0.305 | 0.000174 | 571000 | B16 |
| 0.443 | 0.000193 | 436000 | B17 |
| 0.256 | 0.000141 | 554000 | B18 |
| 0.33 | 0.000161 | 487000 | B19 |
| 0.165 | 7.6e-05 | 462000 | B20 |
| 0.332 | 0.000145 | 437000 | B21 |
| 0.29 | 0.000147 | 509000 | B22 |
| 0.0902 | 0.000117 | 1.3e+06 | B23 |
| 0.384 | 0.000153 | 398000 | B24 |
| 0.209 | 0.000115 | 551000 | B25 |
| 0.399 | 0.000146 | 365000 | B26 |
| 0.235 | 0.000119 | 508000 | B27 |
| 0.107 | 0.00011 | 1.02e+06 | B28 |
| 0.222 | 0.000128 | 577000 | B29 |

Biological target: T2, recombinant human IL-6
Experiment: SPR (Biacore), purified IgG on Protein A, 37 C
Protocol: as §1

| Kd [nM] | koff [s⁻¹] | kon [M⁻¹ s⁻¹] | Binder |
| --- | --- | --- | --- |
| 0.158 | 0.000139 | 880000 | B7 |
| 0.687 | 0.000601 | 875000 | B8 |
| 0.438 | 0.000342 | 782000 | B9 |
| 0.465 | 0.000326 | 702000 | B10 |
| 0.394 | 0.000236 | 599000 | B11 |
| 0.634 | 0.000541 | 852000 | B12 |
| 0.444 | 0.000374 | 842000 | B13 |
| 0.569 | 0.00037 | 650000 | B14 |
| 0.466 | 0.000397 | 850000 | B15 |
| 0.404 | 0.000372 | 921000 | B16 |
| 0.685 | 0.00069 | 1.01e+06 | B17 |
| 0.391 | 0.000336 | 858000 | B18 |
| 0.719 | 0.000764 | 1.06e+06 | B19 |
| 0.505 | 0.000343 | 679000 | B20 |
| 0.553 | 0.000449 | 811000 | B21 |
| 0.527 | 0.000402 | 762000 | B22 |
| 0.0695 | 0.000136 | 1.96e+06 | B23 |
| 0.499 | 0.00041 | 823000 | B24 |
| 0.463 | 0.00039 | 842000 | B25 |
| 0.587 | 0.000401 | 683000 | B26 |
| 0.425 | 0.000378 | 889000 | B27 |
| 0.0895 | 0.000171 | 1.91e+06 | B28 |
| 0.524 | 0.000453 | 864000 | B29 |
